Data reported in the nanobody polyreactivity screen of Harvey et al. (2022).

Assay: yeast display, Sf9 membrane polyspecificity reagent, FACS + sequencing; frameworks hold sequencing errors
How it was run: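 Using colony PCR, genes from sorted yeast display clones were amplified, then sequenced on MiSeq at 2 × 250 and filtered by CDR length. The clones had been stained with 10% biotinylated, detergent-solubilized Sf9 membrane reagent for 1 hour at 4 °C and sorted by FACS into low and high (top ~1%) gates on anti-HA and streptavidin fluorescence. Polyreactivity labels come from the gate of origin.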

QVQLVESGGGLVQAGVSLRISCAASVRTFSRYTMGWYRPAPGKERELVAANSGDGASTYYADSVKGRFTISRDNAKYSVYLQMYSLKPEDTAVYYCAARGTRYWDYRYYAYNYWGQGTQVTVSS
polyreactivity (PSR sort gate): high polyreactivity

QVQLVESGGGLVQAGVSLRLSCAASARIFSGYAMGWYRQAPGKEREFVAAITSSGRTKYADSVKGRFTISRDNATNTVYLQMNSLKPEDTAVYYCAAYFGYDWPEYDYWRQGTQVTVSS
polyreactivity (PSR sort gate): high polyreactivity

QVQLVESGGGLVQAGVSLRLSCAASGFIFFPYVMGWYRQAPGKERELVARNTSGGGSTYYADSVKGRFTISRDNAKNTVYIQMNSLKPEDTAGYYCKARRIWYQSTFNYWGQGTQVTVSS
polyreactivity (PSR sort gate): high polyreactivity

QVQLVESGGGLVQAGVSLRLSCAASGFIFWFYAMGWYRQAPGKERELVAAINWSGSYTYYADSVKARFTISRDNAKNTVYLQMNSLKPEDTAVYYCNALFSYGYWRVRYNYWGQGTQVTVSS
polyreactivity (PSR sort gate): high polyreactivity

QVQLVESGGGLVQAGVSLRLSCAASGFTFYPYAMGWYRQAPGKERELVAAISYSGGRTYADSVKGRFTISRDNAKNTVYLQMNSLKPEDTAVYYCAADWTVLVYPYYHEYDYWGQGTQVTVSS
polyreactivity (PSR sort gate): low polyreactivity

QVQLVESGGGLVQAGVSLRLSCAASGIIFAGYVMGWYRQAPGKARELVAAISYRGGSTNYADSVKGRFTISRDNAKNTVYLQMNSLKPEDTAVYYCNRYSRDSRYGYLKFGYDYWGQGTQVTVSS
polyreactivity (PSR sort gate): high polyreactivity

QVQLVESGGGLVQAGVSLRLSCAASGINFTRYAMGWYRQAPGKERELVAAITRNGVSTYYADSVKGRFTISRDIAKNSVYLQMKSLKPEDTAVYYCNTFVLRRYAYCYWGQGTQVTVSS
polyreactivity (PSR sort gate): high polyreactivity

QVQLVESGGGLVQAGVSLRLSCAASGLTLRPYTMGWYRQAPGKERELVAAITGRGGRTHYADSVKGRFTISRDNAKNTVYLQMNSLKPEDTAVYYCAAAARVYVKVGYNYWGQGTQVTVSS
polyreactivity (PSR sort gate): high polyreactivity

QVQLVESGGGLVQAGVSLRLSCAASGNIFRYYVMGWYRQAPGKEREFVAAITSSGGSTYYADSVKGRFTISRDNAKKSFYLQMNSLKPEDSAVYYCAKDYWDPGWAEYDYWGQGTQVTVSS
polyreactivity (PSR sort gate): low polyreactivity

QVQLVESGGGLVQAGVSLRLSCAASGRIFDRNAMGWYRQAPGKERELVARISRTGGSTYYADSVKGRFTISRDNAKNTVYLQMNSLKPEDTAVYYSAASRGGGYDYWGQGTQVTVSS
polyreactivity (PSR sort gate): high polyreactivity

QVQLVESGGGLVQAGVSLRLSCAASGRIFLWYAMGWYRQAPGKERELVAVIRGRGDSTSYADSVKGRFTISRDNAKNTVYLQMNSLKPEDTAVYYCADVGRYDYNDWGQGTQVTVSS
polyreactivity (PSR sort gate): low polyreactivity

QVQLVESGGGLVQAGVSLRLSCAASGRIFRFYAMGWYRQAPGIDRELVATISRSGGSTYYADSVKGRFTISRDNAKNNAYLQMNSLKPEDTAVYYCAAQRLHDGDYWVQGTQVTVSS
polyreactivity (PSR sort gate): high polyreactivity

QVQLVESGGGLVQAGVSLRLSCAASGRIFYHNAMGWYRQAPGKEREFVAAISSRGGTTYYADSVKGRFTISRDNAKKTVYLQMNILKPEDTAVYYCAKQYYSASPAKGDYWGQGTQVTVSS
polyreactivity (PSR sort gate): high polyreactivity

QVQLVESGGGLVQAGVSLRLSCAASGRTFFPNAMGWYRQAPGKERELVAAITHSGGTTYYADSVKGRFTISRDNAKNTVYLQMNSLKPEDTAVYYCARGQPRYYNSAYGYWGLGTQVTVSS
polyreactivity (PSR sort gate): high polyreactivity

QVQLVESGGGLVQAGVSLRLSCAASGRTFPRYAMGWYRQAPGKERELVASISYSGGSTYYADSVKVRFTISRDTAKNTVYLQLNSLKPEDTAVYYCARRGRTSFKYYYWGQGTQVTVSS
polyreactivity (PSR sort gate): high polyreactivity

QVQLVESGGGLVQAGVSLRLSCAASGRTFVTYAMGWSREAPGKEKEFVAAISRTGGSTDYADSVKGRFTISRDNAKNTVYLQMNSLKPEETAVYYCATTVIVSPSGYLKSYYWGQGTQVTVSS
polyreactivity (PSR sort gate): high polyreactivity

QVQLVESGGGLVQAGVSLRLSCAASGSIFGGYAMGWYRQAPGKERELVAVISTRGGRTYYADSVKGRFTISRDNAKYTVYLQMNSLKPEDTAVYYCAANRQYTEYNYWGQGTQVTVSS
polyreactivity (PSR sort gate): high polyreactivity

QVQLVESGGGLVQAGVSLRLSCAASGSIFQSYDMGWYRQEPGKEREVVAAISWSGSTTYYADSVKGRFTLSRDNAKNTVYLQMNSLKPEDTAVYYCAVDSNPPDWWAVIYGFWGQGTQVTVSS
polyreactivity (PSR sort gate): low polyreactivity

QVQLVESGGGLVQAGVSLRLSCAASGSIFTQYAMGWSRQAPGKERELVAAISWSGARTYYADSVKGRFTISRDNAKNTVYIQMNSLKPEDTAVYYWAADIIRPVTVDYWGQGTQVTVSS
polyreactivity (PSR sort gate): high polyreactivity

QVQLVESGGGLVQAGVSLRLSCAASGSILRQYAMGWYRQAPGKEWELVAAITGSGGSTSYADSVKGRFTISRDNAKNTVYLQMNSLKPEDTAVYYCNAYLSSRTRSTYGSLRMDYWGPGTQVTVSS
polyreactivity (PSR sort gate): high polyreactivity

QVQLVESGGGLVQAGVSLRLSCAASGSTFARYAMGWYRQAPGKERELVAVITQSGSSTYYADSVKGRFTISRDNAKNTVYLQMNSLKPEDTAVYYCAAVGIDYTRYGRYWYSYDYWGQGTQVTVSS
polyreactivity (PSR sort gate): high polyreactivity

QVQLVESGGGLVQAGVSLRLSCAASGSTFDTYAMGWYRQAPGKERELVAAISGSGVRTYYADSVKGRFTISRDNAKYTVYLQMNSLKPEDTAVYYCATTGYARRFDYWGQGSQVTVSS
polyreactivity (PSR sort gate): high polyreactivity

QVQLVESGGGLVQAGVSLRLSCAASGSTFGENDMGWYRQAPGKERELVAAITWSGGSTYYADSVKGRFTISRDNAKNTVYLQMNSLNPEVTAVYYCNAEGVGRYSPVSHTFDYWGQGTQVTVSS
polyreactivity (PSR sort gate): low polyreactivity

QVQLVESGGGLVQAGVSLRLSCAASGSTFTYNAMGWYRQAPGKERELVAAISYGGGRTYYADSVKGRFTISRDNAKNTVYLLMNSLKPEDTAVYYCNRYRYSYVEFDYWGQGTQVTVSS
polyreactivity (PSR sort gate): high polyreactivity

QVQLVESGGGLVQAGVSLRLSCAASGTFFIYAMGWYRQAPGKERELVAAITSGDITYYADSVKGRFTISRDNAKNTVYFEMNRLKPEDTAVYYCAAESYAWWDKQFLYRYDYWGQGTQVTVSS
polyreactivity (PSR sort gate): low polyreactivity

QVQLVESGGGLVQAGVSLRLSCADSGFTFDGYAMGWYRQAPGKERELVAAISDSGDSTYYADSVKGRFTISRDNAKNTVYLHMNSLKPEDTAVYYCAAGLGYYWSDYFAYDYWGQGTQVTVSS
polyreactivity (PSR sort gate): low polyreactivity

QVQLVESGGGLVQAGVSLRLTCAASGRIFRRYAMGWYRQAPGKEMEFVAAISYGGGSTYYADSVKGRFTISRDNAKNTVYLQMNSLKPEDTAVYYWNADEVVWGYNYWGQGTQVNVSS
polyreactivity (PSR sort gate): low polyreactivity

QVQLVESGGGLVQAGVSLSLSCAASGITFIIYVMGWYRQAPGKERELVAAISSTGSTYYADSVKGRFTISRDNAKNTVYLQMNSLKPEDTAVYYCAARGRRSSNGFYYWGQGTQVTVSS
polyreactivity (PSR sort gate): high polyreactivity

QVQLVESGGGLVQAGYSLRLSFAASGITFRYYAMGWYRQATGKERELVAGITWSGPSTYYADSVKGRFTISRDNAKNTVYLQMNILKPEYTAVFYCAVDYGLYFTFDYWGQGTQVTVSS
polyreactivity (PSR sort gate): low polyreactivity

QVQLVESGGGLVQALGSLRLSCAASGFIFGYNAMGWYRQAPGQERELVAAISSSGGSTYYADSVKGRFTISRDNAKNTVYLQMNSLKPEDTAVYYGAARPVALRKYDYWGLGTQVTVSS
polyreactivity (PSR sort gate): low polyreactivity

QVQLVESGGGLVQARGSHRISCAASGRTITFNAMGWYRQAPGKQRELVAGIDLSTTSTYYADSVKGRFTISRDNAKNTVYLQMNSLKPEDCAVYYCNAYRNADYDYWGQGTLVTVSS
polyreactivity (PSR sort gate): low polyreactivity

QVQLVESGGGLVQARGSLRLSCAASGAIFVVYTMGWYRQAPGKERELVAAITQNGGSSTYYADSVKGSFTISRDNAKNTFYLQMNSLKPDDTAVYYCNVDSFTTTFDYWGQGTQVTVSS
polyreactivity (PSR sort gate): low polyreactivity
